Assay results taken from article doi:10.1101/2025.11.15.688623.

Experiments:
[1] = target: AccA3 (biotin carboxylase subunit with C-terminal BCCP domain) (Mycobacterium smegmatis (endogenous in M. smegmatis)); assay: cryo-EM structure
[2] = target: AccE5 (ε-subunit) (Mycobacterium smegmatis (endogenous in M. smegmatis)); assay: cryo-EM structure

Row | Substance | stoichiometry N [1] | stoichiometry N [2]
1 | AccA3 (biotin carboxylase subunit with C-terminal BCCP domain) (enzyme) | 4 | 
2 | AccE5 (ε-subunit) (natural protein) |  | 2
